The target in the assay is Y75H holo-HasAp (heme-loaded hemophore HasAp, Y75H variant) (Pseudomonas aeruginosa) (UniProt G3XD33). Put plainly: SPR.

Usually Kd stands for a measure of binding affinity in units of concentration.

The substance “HasR outer membrane receptor in styrene-maleic acid lipid nanodisc (HasR-SMALP)” gave a Kd of 394 nM. In other words, the sub-micromolar range.

The record behind these values is PMC8672344.
